In US20190002564A1 (Hoffmann-La Roche, published 2019):

Key:
[1] = target: T1, human MCSP(D3 domain)-avi-his (human, UniProt Q6UVK1 1582-2224); assay: SPR ProteOn XPR36; parental M4-3/ML2 IgG KD against variant IgG KD
T1 construct: Recombinant D3 domain of MCSP (CSPG4) with avi and his tags; also called hu-MCSP(D3 domain)-avi-his; human MCSP antigen
T1 sequence: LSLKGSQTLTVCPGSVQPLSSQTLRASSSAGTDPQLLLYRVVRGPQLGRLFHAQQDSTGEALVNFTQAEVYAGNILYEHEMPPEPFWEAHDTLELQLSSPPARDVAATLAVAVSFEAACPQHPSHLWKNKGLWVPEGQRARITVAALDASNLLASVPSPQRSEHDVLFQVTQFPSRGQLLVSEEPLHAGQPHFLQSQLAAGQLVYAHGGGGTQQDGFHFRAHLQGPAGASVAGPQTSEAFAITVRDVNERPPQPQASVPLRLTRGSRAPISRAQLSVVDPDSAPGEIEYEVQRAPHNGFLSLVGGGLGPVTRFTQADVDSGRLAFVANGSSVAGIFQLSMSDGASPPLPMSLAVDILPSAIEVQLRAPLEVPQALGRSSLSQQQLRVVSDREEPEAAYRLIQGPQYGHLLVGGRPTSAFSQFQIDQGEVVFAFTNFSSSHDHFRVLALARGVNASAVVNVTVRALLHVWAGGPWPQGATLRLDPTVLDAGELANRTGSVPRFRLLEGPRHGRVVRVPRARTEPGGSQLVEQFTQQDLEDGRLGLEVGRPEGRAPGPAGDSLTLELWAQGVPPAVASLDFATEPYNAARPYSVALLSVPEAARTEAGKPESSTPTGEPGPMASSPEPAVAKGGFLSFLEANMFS

cynomolgus MCSP D3 = target: T2, cynomolgus MCSP D3 (cynomolgus, UniProt Q6UVK1 1582-2224 (human entry), limits assumed); assay: as above
T2 construct: Recombinant, captured through anti-Penta His in the avidity set-up; also called Cyno MCSP; cynomolgus homologue
T2 chain: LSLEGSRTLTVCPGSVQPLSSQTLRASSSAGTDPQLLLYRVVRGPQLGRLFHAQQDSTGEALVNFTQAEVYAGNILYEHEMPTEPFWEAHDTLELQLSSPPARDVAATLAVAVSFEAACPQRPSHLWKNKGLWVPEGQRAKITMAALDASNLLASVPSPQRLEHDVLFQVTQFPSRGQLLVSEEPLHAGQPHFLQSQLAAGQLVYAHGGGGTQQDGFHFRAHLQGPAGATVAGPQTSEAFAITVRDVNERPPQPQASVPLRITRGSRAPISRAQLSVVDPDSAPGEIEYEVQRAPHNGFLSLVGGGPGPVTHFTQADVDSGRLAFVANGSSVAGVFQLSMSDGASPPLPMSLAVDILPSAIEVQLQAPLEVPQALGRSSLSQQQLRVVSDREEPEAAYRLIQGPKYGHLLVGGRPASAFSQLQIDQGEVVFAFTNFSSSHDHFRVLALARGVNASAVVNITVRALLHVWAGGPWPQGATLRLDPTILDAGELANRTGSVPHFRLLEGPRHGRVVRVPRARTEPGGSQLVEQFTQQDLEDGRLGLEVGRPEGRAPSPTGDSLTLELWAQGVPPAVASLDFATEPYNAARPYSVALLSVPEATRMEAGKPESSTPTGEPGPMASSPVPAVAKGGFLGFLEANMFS

[2] = target: T3, human CEA (Carcinoembryonic antigen, CEACAM5) on tumor cells (human, UniProt P06731 35-685, The C-terminal Ala685 carries the GPI anchor. The protein is heavily N-glycosylated.); assay: cell-based or functional assay
T3 sequence: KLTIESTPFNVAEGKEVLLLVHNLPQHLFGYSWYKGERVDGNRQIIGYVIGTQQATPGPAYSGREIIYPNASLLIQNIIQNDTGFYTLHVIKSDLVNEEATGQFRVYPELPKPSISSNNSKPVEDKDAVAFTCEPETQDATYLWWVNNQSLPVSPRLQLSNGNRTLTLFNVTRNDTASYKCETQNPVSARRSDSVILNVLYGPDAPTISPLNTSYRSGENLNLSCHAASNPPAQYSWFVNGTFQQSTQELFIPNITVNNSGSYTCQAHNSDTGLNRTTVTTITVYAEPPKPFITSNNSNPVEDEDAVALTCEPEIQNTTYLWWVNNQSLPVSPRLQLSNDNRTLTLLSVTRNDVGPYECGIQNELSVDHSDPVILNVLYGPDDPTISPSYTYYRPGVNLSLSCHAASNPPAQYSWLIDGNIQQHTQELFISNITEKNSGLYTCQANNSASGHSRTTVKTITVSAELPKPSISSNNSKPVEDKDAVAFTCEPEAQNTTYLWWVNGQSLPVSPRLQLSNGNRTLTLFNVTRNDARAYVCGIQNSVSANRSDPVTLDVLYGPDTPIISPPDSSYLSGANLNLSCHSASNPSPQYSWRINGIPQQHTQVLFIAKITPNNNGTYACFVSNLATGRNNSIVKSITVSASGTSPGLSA

[3] = target: T3, human CEA (Carcinoembryonic antigen, …); assay: cell-based or functional assay; remark: listed apart in the source
[4] = target: T4, human CD3 on Jurkat cells (Homo sapiens, UniProt P07766); assay: flow cytometry on Jurkat cells (human CD3), FITC-conjugated anti-human IgG F(ab')2 secondary antibody, median fluorescence intensity
T4 construct: native, on the surface of the Jurkat human T cell line; also called CD3+ cells (Jurkat)
Experimental: (§1) An untargeted TCB (SEQ ID NOs: 59, 60, 61 and 62; see example 24) was used as control. Briefly, cells were harvested, counted, checked for viability and resuspended at 2×10⁶ cells/ml in FACS buffer (100 μl PBS 0.1% BSA).

[5] = target: T4, human CD3 on Jurkat cells; assay: flow cytometry on Jurkat cells (CD3+), PE-conjugated anti-human IgG Fcγ secondary antibody, median fluorescence intensity
Experimental: (§2) Briefly, cells were harvested, counted, checked for viability and resuspended at 2×10⁶ cells/ml in FACS buffer (100 μl PBS 0.1% BSA).

[6] = target: T5, human MCSP (Melanoma-associated Chondroitin Sulfate Proteoglycan) on tumor cells (human, UniProt Q6UVK1 30-2322); assay: flow cytometry on A375 cells (MCSP+), PE-conjugated anti-human IgG Fcγ secondary antibody, median fluorescence intensity
T5 construct: whole, on cells; Cell surface antigen on human tumor cell lines A375 (high), MV-3 (medium), HCT-116 (low); also called CSPG4
Experimental: as §2

[7] = target: T3, human CEA (Carcinoembryonic antigen, …); assay: flow cytometry on A549-huCEA cells, FITC-conjugated anti-human IgG F(ab')2 secondary antibody, median fluorescence intensity
Experimental: as §1

T4 sequence (P07766 23-207): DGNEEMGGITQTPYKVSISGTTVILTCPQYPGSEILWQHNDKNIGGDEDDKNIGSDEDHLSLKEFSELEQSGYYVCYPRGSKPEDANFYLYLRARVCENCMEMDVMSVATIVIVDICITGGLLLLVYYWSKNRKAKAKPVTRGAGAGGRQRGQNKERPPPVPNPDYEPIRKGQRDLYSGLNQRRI
T5 sequence (Q6UVK1 30-2322): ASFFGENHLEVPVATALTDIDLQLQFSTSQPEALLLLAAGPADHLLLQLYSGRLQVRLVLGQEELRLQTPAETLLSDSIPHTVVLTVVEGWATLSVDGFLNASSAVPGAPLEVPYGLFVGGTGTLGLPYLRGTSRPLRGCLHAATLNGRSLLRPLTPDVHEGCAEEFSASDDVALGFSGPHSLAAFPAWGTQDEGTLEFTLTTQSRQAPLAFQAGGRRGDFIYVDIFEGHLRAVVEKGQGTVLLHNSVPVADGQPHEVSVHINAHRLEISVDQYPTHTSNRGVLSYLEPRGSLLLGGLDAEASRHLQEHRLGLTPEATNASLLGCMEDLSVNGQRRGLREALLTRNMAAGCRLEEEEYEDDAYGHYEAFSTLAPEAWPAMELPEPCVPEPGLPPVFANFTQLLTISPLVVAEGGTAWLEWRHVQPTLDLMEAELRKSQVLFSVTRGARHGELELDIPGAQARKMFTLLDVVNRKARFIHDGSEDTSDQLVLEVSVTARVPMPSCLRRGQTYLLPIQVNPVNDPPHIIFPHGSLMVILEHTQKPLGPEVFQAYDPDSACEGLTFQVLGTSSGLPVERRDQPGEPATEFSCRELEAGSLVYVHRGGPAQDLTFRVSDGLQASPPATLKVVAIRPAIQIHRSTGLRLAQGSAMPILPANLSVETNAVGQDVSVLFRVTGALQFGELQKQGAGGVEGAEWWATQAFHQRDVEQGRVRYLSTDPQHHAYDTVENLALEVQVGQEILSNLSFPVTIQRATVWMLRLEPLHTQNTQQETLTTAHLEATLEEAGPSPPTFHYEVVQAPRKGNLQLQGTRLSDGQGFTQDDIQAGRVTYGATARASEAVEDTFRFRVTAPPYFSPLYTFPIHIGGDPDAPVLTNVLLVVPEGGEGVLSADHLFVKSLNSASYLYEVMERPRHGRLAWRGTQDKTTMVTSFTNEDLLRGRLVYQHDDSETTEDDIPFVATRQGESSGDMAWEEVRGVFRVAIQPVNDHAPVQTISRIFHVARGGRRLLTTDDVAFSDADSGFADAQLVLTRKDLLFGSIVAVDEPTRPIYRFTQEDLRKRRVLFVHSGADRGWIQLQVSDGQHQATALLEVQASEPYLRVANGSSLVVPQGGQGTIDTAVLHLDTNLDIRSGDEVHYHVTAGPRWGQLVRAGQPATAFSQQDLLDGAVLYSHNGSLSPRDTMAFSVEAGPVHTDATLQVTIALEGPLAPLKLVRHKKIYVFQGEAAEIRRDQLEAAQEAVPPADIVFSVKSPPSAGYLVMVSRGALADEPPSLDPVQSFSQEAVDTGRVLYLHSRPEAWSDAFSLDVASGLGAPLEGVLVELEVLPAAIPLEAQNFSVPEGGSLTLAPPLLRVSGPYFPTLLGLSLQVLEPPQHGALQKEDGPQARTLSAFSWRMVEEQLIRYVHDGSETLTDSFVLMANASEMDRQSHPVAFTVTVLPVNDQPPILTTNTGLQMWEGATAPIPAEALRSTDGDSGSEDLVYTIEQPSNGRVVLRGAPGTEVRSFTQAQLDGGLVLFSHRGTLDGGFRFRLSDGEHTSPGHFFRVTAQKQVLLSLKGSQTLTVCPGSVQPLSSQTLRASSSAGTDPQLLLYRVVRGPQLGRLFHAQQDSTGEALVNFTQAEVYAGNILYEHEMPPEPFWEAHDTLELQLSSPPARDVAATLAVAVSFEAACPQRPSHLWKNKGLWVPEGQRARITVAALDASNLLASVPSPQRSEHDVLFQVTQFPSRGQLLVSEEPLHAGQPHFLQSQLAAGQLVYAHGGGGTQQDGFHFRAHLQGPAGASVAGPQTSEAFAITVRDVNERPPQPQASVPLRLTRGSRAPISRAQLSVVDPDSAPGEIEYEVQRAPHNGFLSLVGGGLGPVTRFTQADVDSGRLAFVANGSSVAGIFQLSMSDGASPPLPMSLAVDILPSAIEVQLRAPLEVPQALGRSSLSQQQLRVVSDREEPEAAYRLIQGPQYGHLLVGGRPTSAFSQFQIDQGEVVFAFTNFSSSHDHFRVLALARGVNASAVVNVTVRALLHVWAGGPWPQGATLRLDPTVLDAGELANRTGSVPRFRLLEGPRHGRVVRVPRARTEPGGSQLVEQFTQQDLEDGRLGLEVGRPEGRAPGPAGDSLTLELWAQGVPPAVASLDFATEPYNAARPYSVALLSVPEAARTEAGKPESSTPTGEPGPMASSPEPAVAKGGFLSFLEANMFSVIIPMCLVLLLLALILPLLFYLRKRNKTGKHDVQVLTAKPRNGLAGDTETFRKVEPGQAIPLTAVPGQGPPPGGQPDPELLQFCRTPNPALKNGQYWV

B1: M4-3(C1)/ML2(G3) IgG (antibody, V domains shown)
VH: QVQLQESGPGLVKPSQTLSLTCTVSGGSITSGYYWNWIRQHPGKGLEWIGYITFDGSNNYNPSLKSRVTISRDTSKNQFSLKLSSVTAADTAVYYCADFDYWGQGTLVTVSS
VL: DIQMTQSPSSLSASVGDRVTITCRASQGIRNYLNWYQQKPGKAPKLLIYYTSSLHSGVPSRFSGSGSGTDYTLTISSLQPEDFATYYCQQYSALPWTFGQGTKVEIKR
notes: Human IgG1 format, produced in HEK293-EBNA
Fold increase over parent (IgG KD) [1]: 28.6 fold
Fold increase over parent (IgG KD) (cynomolgus MCSP D3): 10 fold

B2: CEA TCB (2+1 Crossfab-IgG P329G LALA inverted) (bispecific antibody)
chain 1: DIQMTQSPSSLSASVGDRVTITCKASAAVGTYVAWYQQKPGKAPKLLIYSASYRKRGVPSRFSGSGSGTDFTLTISSLQPEDFATYYCHQYYTYPLFTFGQGTKLEIKRTVAAPSVFIFPPSDEQLKSGTASVVCLLNNFYPREAKVQWKVDNALQSGNSQESVTEQDSKDSTYSLSSTLTLSKADYEKHKVYACEVTHQGLSSPVTKSFNRGEC
chain 2: QAVVTQEPSLTVSPGGTVTLTCGSSTGAVTTSNYANWVQEKPGQAFRGLIGGTNKRAPGTPARFSGSLLGGKAALTLSGAQPEDEAEYYCALWYSNLWVFGGGTKLTVLSSASTKGPSVFPLAPSSKSTSGGTAALGCLVKDYFPEPVTVSWNSGALTSGVHTFPAVLQSSGLYSLSSVVTVPSSSLGTQTYICNVNHKPSNTKVDKKVEPKSC
chain 3: not shown
chain 4: QVQLVQSGAEVKKPGASVKVSCKASGYTFTEFGMNWVRQAPGQGLEWMGWINTKTGEATYVEEFKGRVTFTTDTSTSTAYMELRSLRSDDTAVYYCARWDFAYYVEAMDYWGQGTTVTVSSASTKGPSVFPLAPSSKSTSGGTAALGCLVKDYFPEPVTVSWNSGALTSGVHTFPAVLQSSGLYSLSSVVTVPSSSLGTQTYICNVNHKPSNTKVDKKVEPKSCDKTHTCPPCPAPEAAGGPSVFLFPPKPKDTLMISRTPEVTCVVVDVSHEDPEVKFNWYVDGVEVHNAKTKPREEQYNSTYRVVSVLTVLHQDWLNGKEYKCKVSNKALGAPIEKTISKAKGQPREPQVCTLPPSRDELTKNQVSLSCAVKGFYPSDIAVEWESNGQPENNYKTTPPVLDSDGSFFLVSKLTVDKSRWQQGNVFSCSVMHEALHNHYTQKSLSLSPGK
notes: Two anti-CEA Fabs CH1A1A 98/99 2F1, one anti-CD3 crossfab (humanized CH2527), Fc knob-into-hole with P329G LALA; the conventional light chain occurs twice (vector ratio 1:2:1:1); also called CEA TCB antibody
EC50 of killing of A549-hCEA cells at 40 h, cynomolgus PBMCs as effector cells [2]: 0.102 nM
EC50 of killing of A549-hCEA cells at 40 h, human PBMCs as effector cells [2]: 0.306 nM
EC50 [pM] 48 h for T-cell mediated killing of ASPC1 cells (LDH release, human PBMCs, E:T 10:1) [3]: 846 pM
EC50 [pM] 48 h for T-cell mediated killing of BxPC-3 cells (LDH release, human PBMCs, E:T 10:1) [3]: 3780 pM
EC50 [pM] 48 h for T-cell mediated killing of HPAFII cells (LDH release, human PBMCs, E:T 10:1) [3]: 667 pM
binding result [4]: binds

B3: MCSP TCB (2+1 Crossfab-IgG P329G LALA inverted) (bispecific antibody)
chain 1: not shown
chain 2: B2 chain 2
chain 3: not shown
chain 4: QVQLQESGPGLVKPSQTLSLTCTVSGGSITSGYYWNWIRQHPGKGLEWIGYITFDGSNNYNPSLKSRVTISRDTSKNQFSLKLSSVTAADTAVYYCADFDYWGQGTLVTVSSASTKGPSVFPLAPSSKSTSGGTAALGCLVKDYFPEPVTVSWNSGALTSGVHTFPAVLQSSGLYSLSSVVTVPSSSLGTQTYICNVNHKPSNTKVDKKVEPKSCDKTHTCPPCPAPEAAGGPSVFLFPPKPKDTLMISRTPEVTCVVVDVSHEDPEVKFNWYVDGVEVHNAKTKPREEQYNSTYRVVSVLTVLHQDWLNGKEYKCKVSNKALGAPIEKTISKAKGQPREPQVCTLPPSRDELTKNQVSLSCAVKGFYPSDIAVEWESNGQPENNYKTTPPVLDSDGSFFLVSKLTVDKSRWQQGNVFSCSVMHEALHNHYTQKSLSLSPGK
notes: Two anti-MCSP Fabs M4-3(C1) ML2(G3), one anti-CD3 crossfab (humanized CH2527), Fc knob-into-hole with P329G LALA; the conventional light chain occurs twice (vector ratio 1:2:1:1); also called MCSP TCB antibody; MCSP CD3 bispecific antibody
binding result [5]: binds

B4: untargeted TCB (bispecific antibody)
polypeptide chain; the text does not say which chain this SEQ ID NO is 1: not shown
polypeptide chain; the text does not say which chain this SEQ ID NO is 2: B2 chain 2
polypeptide chain; the text does not say which chain this SEQ ID NO is 3: not shown
polypeptide chain; the text does not say which chain this SEQ ID NO is 4: not shown
notes: Control bispecific antibody that engages CD3 through humanized CH2527 but no second antigen; also called DP47GS TCB; DP47 GS TCB
binding result [6]: no binding (tested: about log 5.3 [pM] (about 200 nM))
binding result [5]: binds
binding result [7]: no binding (tested: log 6 [pM] (1000 nM))
